Test results as given in the supplement of paper PMC7877785.
± gives the uncertainty stated by the source.

Test: self-splicing fitness, log relative to wild type (ln ratio); higher = more splicing; Tetrahymena group I intron in knt gene, E. coli kanamycin selection, DiMSum; sequences stand for … in CUCUCU…GGAGGGAAAAGUUAUCAGGCAUGCACCUGGUAGCUAGUCUUUAAACCAAUAGAUUGCAUCGGUUUAAAAGGCAAGACCGUCAAAUUGCGGGAAAGGGGUCAACAGCCGUUCAGUACCAAGUCUCAGGGGAAACUUUGAGAUGGCCUUGCAAAGGGUAUGGUAAUAAGCUGACGGACAUGGUCCUAACCACGCAGCCAAGUCCUAAGUCAACAGAUCUUCUGUUGAUAUGGAUGCAGUUCACAGACUAAAUGUCGGUCGGGGAAGAUGUAUUCUUCUCAUAAGAUAUAGUCGGACCUCUCCUUAAUGGGAGCUAGCGGAUGAAGUGAUGCAACACUGGAGCCGCUGGGAACUAAUUUGUAUGCGAAAGUAUAUUGAUUAGUUUUGGAGUACUCGUGGUCG
How it was run: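 DiMSum derived fitness as the error-weighted combination of fold changes across replicates, kanamycin versus no kanamycin, normalised to wild type. E. coli BL21(DE3) held the library, which randomised all eight P1ex-region intron nucleotides within the knt kanamycin-resistance gene on pET-22b(+). Six replicate transformations grew overnight at 37°C or 30°C on LB agar with or without 25 μg/mL kanamycin, also containing 100 μg/mL carbenicillin, 50 μM IPTG and 0.2% rhamnose, and pooled colonies were amplicon-sequenced on an Illumina HiSeq 2500.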

Row | Sequence | self-splicing fitness (ln) (30 °C) | self-splicing fitness (ln) (37 °C)
1 | GCCAAGCAAUAUUACGUGUC | -1.62 ± 0.06 | -0.848 ± 0.075
2 | CCUCAGCAAUAUUACGUAGU | -2.16 ± 0.066 | -0.762 ± 0.075
3 | CGUGAGCAAUAUUACGGAUA | -3.1 ± 0.3 | -2.71 ± 0.34
4 | GUCCAGCAAUAUUACGAUUG | -3.41 ± 0.17 | -3.17 ± 0.24
5 | UCAAAGCAAUAUUACGACUA | -1.14 ± 0.098 | -1.03 ± 0.1
6 | GUGCAGCAAUAUUACGGCGA | -0.548 ± 0.064 | 0.119 ± 0.092
7 | CUGCAGCAAUAUUACGGUCU | -3.44 ± 0.17 | -2.07 ± 0.2
8 | ACGCAGCAAUAUUACGGGGA | -2.28 ± 0.091 | -2.14 ± 0.1
9 | ACAUAGCAAUAUUACGUUUU | -3.76 ± 0.16 | -2.59 ± 0.17
10 | CACCAGCAAUAUUACGUAUC | -3.55 ± 0.14 | -2.99 ± 0.19
11 | GUAAAGCAAUAUUACGACCA | -0.123 ± 0.093 | 0.27 ± 0.13
12 | CAACAGCAAUAUUACGGCUU | -1.88 ± 0.082 | -0.875 ± 0.087
13 | AUGGAGCAAUAUUACGCUGC | – | -2.95 ± 0.38
14 | AGCUAGCAAUAUUACGCGAU | -3 ± 0.31 | -2.14 ± 0.22
15 | CUUCAGCAAUAUUACGCAUU | -3.11 ± 0.19 | -2.28 ± 0.2
16 | CCCCAGCAAUAUUACGGCGC | -3.41 ± 0.17 | -2.98 ± 0.24
17 | UGUGAGCAAUAUUACGCGUA | -2.35 ± 0.34 | -0.703 ± 0.27
18 | AUCUAGCAAUAUUACGUAUU | -2.56 ± 0.15 | -2.08 ± 0.19
19 | GGUUAGCAAUAUUACGUGCU | -2.76 ± 0.46 | -2.35 ± 0.3
20 | AUGAAGCAAUAUUACGCAAC | -1.28 ± 0.16 | -1.13 ± 0.16
21 | UAAGAGCAAUAUUACGAAUG | -2.32 ± 0.17 | -1.52 ± 0.25
22 | GAAAAGCAAUAUUACGUCGG | -4.39 ± 0.32 | -2.89 ± 0.24
23 | GGACAGCAAUAUUACGAGGC | -2.17 ± 0.14 | -1.32 ± 0.2
24 | GCCGAGCAAUAUUACGCGCA | -1.42 ± 0.19 | -0.221 ± 0.14

Row | Sequence | self-splicing fitness (ln) (30 °C) | self-splicing fitness (ln) (37 °C)
25 | ACAGAGCAAUAUUACGGAGC | -4.22 ± 0.34 | -3.15 ± 0.25
26 | GCUCAGCAAUAUUACGCGUG | -1.99 ± 0.07 | -1.79 ± 0.089
27 | GUUAAGCAAUAUUACGGACA | -0.907 ± 0.21 | -1.18 ± 0.21
28 | UGUUAGCAAUAUUACGUGGG | -3.19 ± 0.27 | -2.89 ± 0.27
29 | AAGAAGCAAUAUUACGGUAG | -3.76 ± 0.19 | -1.83 ± 0.17
30 | AUGCAGCAAUAUUACGUACA | -0.892 ± 0.064 | -0.686 ± 0.076
31 | UCCGAGCAAUAUUACGCCAA | – | -2.4 ± 0.49
32 | GAUUAGCAAUAUUACGUCAG | -3.51 ± 0.35 | -4.23 ± 0.46
33 | CCCUAGCAAUAUUACGGCCG | -2.29 ± 0.36 | -1.62 ± 0.34
34 | GUUAAGCAAUAUUACGAUCU | -0.419 ± 0.087 | -0.373 ± 0.11
35 | ACCAAGCAAUAUUACGCGAU | -2.1 ± 0.079 | -1.17 ± 0.11
36 | UGCAAGCAAUAUUACGUCCG | 0.463 ± 0.1 | 0.55 ± 0.12
37 | ACUUAGCAAUAUUACGGCUA | -2.6 ± 0.2 | -0.214 ± 0.1
38 | UGGUAGCAAUAUUACGGAGG | -3.85 ± 0.27 | -1.56 ± 0.16
39 | GCAUAGCAAUAUUACGUAAC | -2.24 ± 0.13 | -1.57 ± 0.14
40 | CCAAAGCAAUAUUACGAAGU | -3.04 ± 0.15 | -2.42 ± 0.2
41 | CUAAAGCAAUAUUACGGUGA | -4.11 ± 0.2 | -1.6 ± 0.14
42 | UGUGAGCAAUAUUACGGGUC | -4.25 ± 0.33 | -2.41 ± 0.19
43 | UUAAAGCAAUAUUACGACUA | 0.243 ± 0.1 | 0.643 ± 0.14
44 | CUCUAGCAAUAUUACGCCAC | -2.66 ± 0.28 | –
45 | AGCCAGCAAUAUUACGAGGU | -3.51 ± 0.23 | -1.93 ± 0.21
46 | CUCAAGCAAUAUUACGUCCG | -2.08 ± 0.12 | -1.38 ± 0.13
47 | GGCAAGCAAUAUUACGUGCG | -1.57 ± 0.1 | -0.197 ± 0.099
48 | GGCAAGCAAUAUUACGUAAA | -0.188 ± 0.089 | -0.267 ± 0.1
